How the values were obtained:
[1] = molecular target: wild-type eNOS (construct expressed in COS cells) (UniProt P29474); experiment: cell-based or functional assay
[2] = molecular target: endothelial nitric oxide synthase (eNOS), endogenous, human umbilical vein endothelial cells (HUVECs) (human) (UniProt P29474); experiment: eNOS IP, phospho-Ser473-Akt immunoblot, HUVEC lysates
[3] = molecular target: S1177A eNOS mutant (construct expressed in COS cells) (UniProt P29474); experiment: cell-based or functional assay
Sequence of S1177A eNOS mutant (construct expressed in COS cells) (P29474 2-1203 S1177A limits assumed): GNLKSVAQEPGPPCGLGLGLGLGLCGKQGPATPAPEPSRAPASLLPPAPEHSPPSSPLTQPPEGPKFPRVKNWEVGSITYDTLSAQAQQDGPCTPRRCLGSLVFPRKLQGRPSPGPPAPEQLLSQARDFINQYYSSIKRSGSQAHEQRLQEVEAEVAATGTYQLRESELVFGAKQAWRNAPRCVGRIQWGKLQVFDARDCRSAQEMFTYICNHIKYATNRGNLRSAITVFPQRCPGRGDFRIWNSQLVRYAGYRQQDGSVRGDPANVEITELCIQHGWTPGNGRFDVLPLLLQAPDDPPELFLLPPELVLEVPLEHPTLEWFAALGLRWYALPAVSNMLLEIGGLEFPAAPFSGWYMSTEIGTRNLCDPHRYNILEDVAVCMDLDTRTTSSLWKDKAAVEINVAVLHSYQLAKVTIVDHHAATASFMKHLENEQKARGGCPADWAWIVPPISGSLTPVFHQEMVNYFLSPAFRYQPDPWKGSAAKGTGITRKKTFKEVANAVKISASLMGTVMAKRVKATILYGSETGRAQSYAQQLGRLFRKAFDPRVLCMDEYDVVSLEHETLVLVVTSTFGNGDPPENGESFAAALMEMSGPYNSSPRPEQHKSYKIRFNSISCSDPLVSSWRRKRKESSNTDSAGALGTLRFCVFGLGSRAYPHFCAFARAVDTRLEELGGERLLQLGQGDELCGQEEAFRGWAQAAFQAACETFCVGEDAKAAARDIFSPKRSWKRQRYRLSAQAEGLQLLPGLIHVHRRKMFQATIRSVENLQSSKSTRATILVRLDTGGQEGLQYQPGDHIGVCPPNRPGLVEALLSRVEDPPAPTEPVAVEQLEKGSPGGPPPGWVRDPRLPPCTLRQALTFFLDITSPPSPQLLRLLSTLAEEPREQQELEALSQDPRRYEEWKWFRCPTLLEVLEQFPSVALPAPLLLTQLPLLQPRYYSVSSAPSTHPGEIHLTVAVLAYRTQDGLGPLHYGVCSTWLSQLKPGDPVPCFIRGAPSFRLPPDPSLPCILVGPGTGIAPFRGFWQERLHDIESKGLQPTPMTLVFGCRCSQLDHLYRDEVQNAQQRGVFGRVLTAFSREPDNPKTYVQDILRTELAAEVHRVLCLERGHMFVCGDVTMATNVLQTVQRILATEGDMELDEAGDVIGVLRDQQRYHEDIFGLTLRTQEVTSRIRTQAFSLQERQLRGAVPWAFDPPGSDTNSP

Sequence of wild-type eNOS (construct expressed in COS cells) (P29474 2-1203 limits assumed): as the sequence (P29474 2-1203 S1177A limits assumed) above, with A1176S counted along it
Sequence of endothelial nitric oxide synthase (eNOS), endogenous, human umbilical vein endothelial cells (HUVECs) (human) (P29474 2-1203 limits assumed): as the sequence (P29474 2-1203 S1177A limits assumed) above, with A1176S counted along it

| increase over basal level of nitrite production, COS cells co-transfected with WT-eNOS, active Akt and also recombinant hsp90 [1] [%] | fold increase of phospho-Akt enrichment in the eNOS IP, statin plus recombinant hsp90 vs statin alone [2] [fold] | Substance | increase in nitrite production, co-transfected COS cells [1] [%] | increase in nitrite production, co-transfected COS cells [3] [%] |
| --- | --- | --- | --- | --- |
| 152 |  | Myc-tagged active Akt (T308D/S473D) (from UniProt P31749 1-480) (enzyme) | 64 |  |
|  | > 3 | phospho-Ser473-Akt, endogenous, human umbilical vein endothelial cells (HUVECs) (from UniProt P31749 1-480) (enzyme) |  |  |
|  |  | recombinant hsp90 (expressed from hsp90 cDNA, gift of Dr W. C. Sessa) | 49 | 40 |

Source: patent publication US20040110684A1
